Numbering of substitutions follows the chain as printed.

The chains are these.
B1: BD-508 (antibody, V domains shown)
VH: EVQLVESGGGLVQPGGSLRLSCAASGFIVSSNYMTWVRQAPGKGLEWVSVIYSGGSTFYADSVKGRFTISRHNSKNTLFLQMNSLRAEDTAVYYCARDAQNYGMDVWGQGTTVTVSS
VL: DIQMTQSPSSLSASVGDRVTITCRASQSISSYLNWYQQKPGKAPKLLIFAASSLQTGAPSRFSGSGSGTDFTLTISSLQPEDFATYYCQQSYSTPPYTFGQGTKLEIK
B2: BD-515 (antibody, V domains shown)
VH: EVQLVESGGGLVQPGGSLRLSCAASEFIVSRNYMSWVRQAPGKGLEWVSVIYSGGSTFYADSVKGRFTISRDNSKNTLYLQMNSLRAEDTGVYYCARDRGLVSDYWGQGTLVTVSS
VL: DIQMTQSPSSLSASVGDRVTITCQASQDINKYLNWYQQKPGKAPKLLIFDASHLETGVPSRFSASGSGTDFTFTISSLQPEDIATYYCHQYDNLPRTFGQGTRLEIK
B3: BD-503 (antibody, V domains shown)
VH: EVQLVESGGGLIQPGGSLRLSCAASGLIVSSNYMSWVRQAPGKGLEWVSVLYAGGSTDYAGSVKGRFTISRDNSKNTLYLQMNSLRAEDTAVYYCARDAAVYGIDVWGQGTTVTVSS
VL: not shown
B4: BD-623 (antibody, V domains shown)
VH: EVQLVESGGGLVQPGGSLRLSCAASGFTVSSNYMSWVRQAPGKGLEWVSIIYSGGSTYYADSVKGRFTISRDNSKNTLYLQMNSLRAEDTAVYYCARDYAGRVWGQGTLVTVSS
VL: QSALTQPASVSGSPGQSITISCTGTSSDVGSYNLVSWYQQRPGKAPKLILYEVTKRPSGVSNRFSGSKSGNTASLAISGLQAEDEADYYCCSYAGSSTWVFGGGTKLTVL
B5: BD-604 (antibody, V domains shown)
VH: B1 VH with V12I, F27I, H72D, F79Y, N83S, A99L, Q100G, N101P
VL: DIQLTQSPSFLSASVGDRVTITCRASQGISSDLAWYQQKPGKAPNLLIYAASTLQSGVPSRFSGSGSGTEFTLTISSLQPEDFATYYCQQLNSDLYTFGQGTKLEIK

One experiment addresses T1, SARS-CoV-2 RBD (SARS-CoV-2, UniProt P0DTC2 319-541). Description: SPR.
In turn, B1 yielded a koff of 0.000514 s⁻¹.

Take B2: the koff was found to be 0.000389 s⁻¹.

The next experiment addresses T1, SARS-CoV-2 RBD. Description: SPR. The source holds these as a separate data set.
As to B3, the Kd worked out at 0.204 nM.

B4 gave a Kd of 0.12 nM.

In turn, B5 returned a Kd of 0.012 nM.

Take B1: the Kd came out at 1.3 nM.

B2 showed a Kd of 0.561 nM. Compared with the last molecule, the Kd is about 2.3-fold lower.

The record behind these values is article PMC8413711 (2021).
